From patent publication US12099068B2, “Biomarkers for graft-versus-host disease” (Incyte Corporation, priority 2018, dated 2024)

B1: FAM3B (protein, UniProt P58499 30-235, looked up)
Protein FAM3B: ELIPDAPLSSAAYSIRSIGERPVLKAPVPKRQKCDHWTPCPSDTYAYRLLSGGGRSKYAKICFEDNLLMGEQLGNVARGINIAIVNYVTGNVTATRCFDMYEGDNSGPMTKFIQSAAPKSLLFMVTYDDGSTRLNNDAKNAIEALGSKEIRNMKFRSSWVFIAAKGLELPSEIQREKINHSDAKNNRYSGWPAEIQIEGCIPKERS
B2: SCARF2 (protein, UniProt Q96GP6 44-871, looked up)
Scavenger receptor class F …: QELNPRGRNVCRAPGSQVPTCCAGWRQQGDECGIAVCEGNSTCSENEVCVRPGECRCRHGYFGANCDTKCPRQFWGPDCKELCSCHPHGQCEDVTGQCTCHARRWGARCEHACQCQHGTCHPRSGACRCEPGWWGAQCASACYCSATSRCDPQTGACLCHAGWWGRSCNNQCACNSSPCEQQSGRCQCRERTFGARCDRYCQCFRGRCHPVDGTCACEPGYRGKYCREPCPAGFYGLGCRRRCGQCKGQQPCTVAEGRCLTCEPGWNGTKCDQPCATGFYGEGCSHRCPPCRDGHACNHVTGKCTRCNAGWIGDRCETKCSNGTYGEDCAFVCADCGSGHCDFQSGRCLCSPGVHGPHCNVTCPPGLHGADCAQACSCHEDTCDPVTGACHLETNQRKGVMGAGALLVLLVCLLLSLLGCCCACRGKDPTRRPRPRRELSLGRKKAPHRLCGRFSRISMKLPRIPLRRQKLPKVVVAHHDLDNTLNCSFLEPPSGLEQPSPSWSSRASFSSFDTTDEGPVYCVPHEEAPAESRDPEVPTVPAEAPAPSPVPLTTPASAEEAIPLPASSDSERSASSVEGPGGALYARVARREARPARARGEIGGLSLSPSPERRKPPPPDPATKPKVSWIHGKHSAAAAGRAPSPPPPGSEAAPSPSKRKRTPSDKSAHTVEHGSPRTRDPTPRPPGLPEEATALAAPSPPRARARGRGPGLLEPTDAGGPPRSAPEAASMLAAELRGKTRSLGRAEVALGAQGPREKPAPPQKAKRSVPPASPARAPPATETPGPEKAATDLPAPETPRKKTPIQKPPRKKSREAAGELGRAGAPTL
B3: RASSF2 (protein, UniProt P50749 1-326, looked up)
Ras association …: MDYSHQTSLVPCGQDKYISKNELLLHLKTYNLYYEGQNLQLRHREEEDEFIVEGLLNISWGLRRPIRLQMQDDNERIRPPPSSSSWHSGCNLGAQGTTLKPLTVPKVQISEVDAPPEGDQMPSSTDSRGLKPLQEDTPQLMRTRSDVGVRRRGNVRTPSDQRRIRRHRFSINGHFYNHKTSVFTPAYGSVTNVRINSTMTTPQVLKLLLNKFKIENSAEEFALYVVHTSGEKQKLKATDYPLIARILQGPCEQISKVFLMEKDQVEEVTYDVAQYIKFEMPVLKSFIQKLQEEEDREVKKLMRKYTVLRLMIRQRLEEIAETPATI
B4: SLAMF8 (protein, UniProt Q9P0V8 23-285, looked up)
SLAM family member 8: AQVLSKVGGSVLLVAARPPGFQVREAIWRSLWPSEELLATFFRGSLETLYHSRFLGRAQLHSNLSLELGPLESGDSGNFSVLMVDTRGQPWTQTLQLKVYDAVPRPVVQVFIAVERDAQPSKTCQVFLSCWAPNISEITYSWRRETTMDFGMEPHSLFTDGQVLSISLGPGDRDVAYSCIVSNPVSWDLATVTPWDSCHHEAAPGKASYKDVLLVVVPVSLLLMLVTLFSAWHWCPCSGKKKKDVHADRVGPETENPLVQDLP
B5: GLO1 (protein, UniProt Q04760 2-184, looked up)
Lactoylglutathione lyase: AEPQPPSGGLTDEAALSCCSDADPSTKDFLLQQTMLRVKDPKKSLDFYTRVLGMTLIQKCDFPIMKFSLYFLAYEDKNDIPKEKDEKIAWALSRKATLELTHNWGTEDDETQSYHNGNSDPRGFGHIGIAVPDVYSACKRFEELGVKFVKKPDDGKMKGLAFIQDPDGYWIEILNPNKMATLM
B6: LAIR1 (protein, UniProt Q6GTX8 22-287, looked up)
Leukocyte-associated …: QEEDLPRPSISAEPGTVIPLGSHVTFVCRGPVGVQTFRLERDSRSTYNDTEDVSQASPSESEARFRIDSVREGNAGLYRCIYYKPPKWSEQSDYLELLVKESSGGPDSPDTEPGSSAGPTQRPSDNSHNEHAPASQGLKAEHLYILIGVSVVFLFCLLLLVLFCLHRQNQIKQGPPRSKDEEQKPQQRPDLAVDVLERTADKATVNGLPEKDRETDTSALAAGSSQEVTYAQLDHWALTQRTARAVSPQSTKPMAESITYAAVARH
B7: SCGB3A2 (protein, UniProt Q96PL1 22-93, looked up)
Secretoglobin family 3A …: FLINKVPLPVDKLAPLPLDNILPFMDPLKLLLKTLGISVEHLVEGLRKCVNELGPEASEAVKKLLEALSHLV
B8: IgG Fc receptor II-b (protein, UniProt P31994 43-310, looked up)
Low affinity immunoglobulin …: TPAAPPKAVLKLEPQWINVLQEDSVTLTCRGTHSPESDSIQWFHNGNLIPTHTQPSYRFKANNNDSGEYTCQTGQTSLSDPVHLTVLSEWLVLQTPHLEFQEGETIVLRCHSWKDKPLVKVTFFQNGKSKKFSRSDPNFSIPQANHSHSGDYHCTGNIGYTLYSSKPVTITVQAPSSSPMGIIVAVVTGIAVAAIVAAVVALIYCRKKRISALPGYPECREMGETLPEKPANPTNPDEADKVGAENTITYSLLMHPDALEEPDDQNRI
B9: RTN4R (protein, UniProt Q9BZR6 27-447, looked up)
Reticulon-4 receptor: CPGACVCYNEPKVTTSCPQQGLQAVPVGIPAASQRIFLHGNRISHVPAASFRACRNLTILWLHSNVLARIDAAAFTGLALLEQLDLSDNAQLRSVDPATFHGLGRLHTLHLDRCGLQELGPGLFRGLAALQYLYLQDNALQALPDDTFRDLGNLTHLFLHGNRISSVPERAFRGLHSLDRLLLHQNRVAHVHPHAFRDLGRLMTLYLFANNLSALPTEALAPLRALQYLRLNDNPWVCDCRARPLWAWLQKFRGSSSEVPCSLPQRLAGRDLKRLAANDLQGCAVATGPYHPIWTGRATDEEPLGLPKCCQPDAADKASVLEPGRPASAGNALKGRVPPGDSPPGNGSGPRHINDSPFGTLPGSAEPPLTAVRPEGSEPPGFPTSGPRRRPGCSRKNRTRSHCRLGQAGSGGGGTGDSEGS
B10: RGMB (protein, UniProt Q6NW40 46-413, looked up)
Repulsive guidance molecule B: GDCQQPAQCRIQKCTTDFVSLTSHLNSAVDGFDSEFCKALRAYAGCTQRTSKACRGNLVYHSAVLGISDLMSQRNCSKDGPTSSTNPEVTHDPCNYHSHAGAREHRRGDQNPPSYLFCGLFGDPHLRTFKDNFQTCKVEGAWPLIDNNYLSVQVTNVPVVPGSSATATNKITIIFKAHHECTDQKVYQAVTDDLPAAFVDGTTSGGDSDAKSLRIVERESGHYVEMHARYIGTTVFVRQVGRYLTLAIRMPEDLAMSYEESQDLQLCVNGCPLSERIDDGQGQVSAILGHSLPRTSLVQAWPGYTLETANTQCHEKMPVKDIYFQSCVFDLLTTGDANFTAAAHSALEDVEALHPRKERWHIFPSSGN
B11: ITGB6 (protein, UniProt P18564 22-788, looked up)
Integrin beta-6: GCALGGAETCEDCLLIGPQCAWCAQENFTHPSGVGERCDTPANLLAKGCQLNFIENPVSQVEILKNKPLSVGRQKNSSDIVQIAPQSLILKLRPGGAQTLQVHVRQTEDYPVDLYYLMDLSASMDDDLNTIKELGSRLSKEMSKLTSNFRLGFGSFVEKPVSPFVKTTPEEIANPCSSIPYFCLPTFGFKHILPLTNDAERFNEIVKNQKISANIDTPEGGFDAIMQAAVCKEKIGWRNDSLHLLVFVSDADSHFGMDSKLAGIVIPNDGLCHLDSKNEYSMSTVLEYPTIGQLIDKLVQNNVLLIFAVTQEQVHLYENYAKLIPGATVGLLQKDSGNILQLIISAYEELRSEVELEVLGDTEGLNLSFTAICNNGTLFQHQKKCSHMKVGDTASFSVTVNIPHCERRSRHIIIKPVGLGDALELLVSPECNCDCQKEVEVNSSKCHHGNGSFQCGVCACHPGHMGPRCECGEDMLSTDSCKEAPDHPSCSGRGDCYCGQCICHLSPYGNIYGPYCQCDNFSCVRHKGLLCGGNGDCDCGECVCRSGWTGEYCNCTTSTDSCVSEDGVLCSGRGDCVCGKCVCTNPGASGPTCERCPTCGDPCNSKRSCIECHLSAAGQAREECVDKCKLAGATISEEEDFSKDGSVSCSLQGENECLITFLITTDNEGKTIIHSINEKDCPKPPNIPMIMLGVSLAILLIGVVLLCIWKLLVSFHDRKEVAKFEAERSKAKWQTGTNPLYRGSTSTFKNVTYKHREKQKVDLSTDC
B12: STX16 (protein, UniProt O14662 1-325, looked up)
Syntaxin-16: MATRRLTDAFLLLRNNSIQNRQLLAEQVSSHITSSPLHSRSIAAELDELADDRMALVSGISLDPEAAIGVTKRPPPKWVDGVDEIQYDVGRIKQKMKELASLHDKHLNRPTLDDSSEEEHAIEITTQEITQLFHRCQRAVQALPSRARACSEQEGRLLGNVVASLAQALQELSTSFRHAQSGYLKRMKNREERSQHFFDTSVPLMDDGDDNTLYHRGFTEDQLVLVEQNTLMVEEREREIRQIVQSISDLNEIFRDLGAMIVEQGTVLDRIDYNVEQSCIKTEDGLKQLHKAEQYQKKNRKMLVILILFVIIIVLIVVLVGVKSR
B13: CLEC7A (protein, UniProt Q9BXN2 1-247, looked up)
C-type lectin domain family 7 …: MEYHPDLENLDEDGYTQLHFDSQSNTRIAVVSEKGSCAASPPWRLIAVILGILCLVILVIAVVLGTMAIWRSNSGSNTLENGYFLSRNKENHSQPTQSSLEDSVTPTKAVKTTGVLSSPCPPNWIIYEKSCYLFSMSLNSWDGSKRQCWQLGSNLLKIDSSNELGFIVKQVSSQPDNSFWIGLSRPQTEVPWLWEDGSTFSSNLFQIRTTATQENPSPNCVWIHVSVIYDQLCSVPSYSICEKKFSM
B14: SCAMP3 (protein, UniProt O14828 1-347, looked up)
Secretory carrier-associated …: MAQSRDGGNPFAEPSELDNPFQDPAVIQHRPSRQYATLDVYNPFETREPPPAYEPPAPAPLPPPSAPSLQPSRKLSPTEPKNYGSYSTQASAAAATAELLKKQEELNRKAEELDRRERELQHAALGGTATRQNNWPPLPSFCPVQPCFFQDISMEIPQEFQKTVSTMYYLWMCSTLALLLNFLACLASFCVETNNGAGFGLSILWVLLFTPCSFVCWYRPMYKAFRSDSSFNFFVFFFIFFVQDVLFVLQAIGIPGWGFSGWISALVVPKGNTAVSVLMLLVALLFTGIAVLGIVMLKRIHSLYRRTGASFQKAQQEFAAGVFSNPAVRTAAANAAAGAAENAFRAP
B15: PVALB (protein, UniProt P20472 2-110, looked up)
Parvalbumin alpha: SMTDLLNAEDIKKAVGAFSATDSFDHKKFFQMVGLKKKSADDVKKVFHMLDKDKSGFIEEDELGFILKGFSPDARDLSAKETKMLMAAGDKDGDGKIGVDEFSTLVAES

Tested on: plasma proteins
Test: Plasma proteins modulated between baseline and day 28 in responders (CR, VGPR, PR; n = 19), Example 6 (Table 13)
Assay type: in vivo, human
Settings: plasma protein (OLINK NPX); responders (CR, VGPR, PR; n = 19); itacitinib 200 mg or 300 mg QD with corticosteroids; day 28 vs baseline
Experimental: Due to the limited sample size, steroid-naive (N=10) and steroid-refractory (N=18) patients were combined for further analysis. Broad proteomic analysis of over 1000 proteins was conducted by OLINK Proteomics (Watertown, MA) using a proximity extension assay as described by the manufacturer. Data are presented as normalized protein expression (NPX) in log 2 scale. Statistical differences were evaluated using unpaired and paired t tests, one-way […] (ANOVA), and Pearson Correlation. Significance was conferred when P<0.05.
Longitudinal differences in protein expression were analyzed by evaluating plasma samples from baseline/screening and day 28.

In order of rising “Fold Change, Increased Expression from Baseline to Day 28” value:
1. B10  1.1254
2. B11  1.152
3. B2  1.1639
4. B9  1.195
5. B7  1.3677
6. B1  1.7951

In order of rising “Fold Change, Decreased Expression from Baseline to Day 28” value:
1. B15  −2.0291
2. B13  −1.8103
3. B14  −1.7405
4. B3  −1.5477
5. B4  −1.492
6. B12  −1.4673
7. B8  −1.3893
8. B6  −1.3173
9. B5  −1.2571
